Substitutions are numbered along the chain they refer to.

Results on ten molecules are retold here after patent publication US20230374132A1.

In assay [1] the target is cynomolgus monkey CD3 E&D complex protein (Sino Biological Inc., CT032-00323H) (cynomolgus monkey) (UniProt Q95LI5). Briefly: SPR, antigen on chip.
The target in assay [2] is human CD3E&G complex (Sino Biological Inc., CT041-H0305H) (human) (UniProt P07766). Put plainly: SPR, antigen on chip.
Chain of human CD3E&G complex (Sino Biological Inc., CT041-H0305H) (human) (P07766 23-126, chain 1 of 2): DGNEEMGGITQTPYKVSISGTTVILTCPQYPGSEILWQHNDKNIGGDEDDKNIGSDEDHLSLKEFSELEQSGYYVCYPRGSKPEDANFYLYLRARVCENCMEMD
Chain of human CD3E&G complex (Sino Biological Inc., CT041-H0305H) (human) (P09693 23-116, chain 2 of 2, further chain): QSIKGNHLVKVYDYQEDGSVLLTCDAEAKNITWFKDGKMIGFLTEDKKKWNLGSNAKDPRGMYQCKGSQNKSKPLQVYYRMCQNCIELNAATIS

Chain of cynomolgus monkey CD3 E&D complex protein (Sino Biological Inc., CT032-00323H) (cynomolgus monkey) (Q95LI5 22-117, chain 1 of 2): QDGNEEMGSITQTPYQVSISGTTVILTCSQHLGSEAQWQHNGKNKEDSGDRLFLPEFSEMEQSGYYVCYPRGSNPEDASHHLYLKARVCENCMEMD
Chain of cynomolgus monkey CD3 E&D complex protein (Sino Biological Inc., CT032-00323H) (cynomolgus monkey) (Q95LI8 22-105, chain 2 of 2, further chain): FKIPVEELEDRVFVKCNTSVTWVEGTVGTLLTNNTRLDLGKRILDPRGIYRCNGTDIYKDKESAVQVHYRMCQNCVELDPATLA

B1: SGN70-sp34.24HL (bispecific antibody, part only; not given: anti-CD70 Fab arm and Fc, not shown: another chain or arm of the molecule; a dimerising Fc or GST; large carriers; small tags and cut ends)
scFv: EVQLVESGGGLVQPGGSLKLSCAASGFTFNTYAMNWVRQASGKGLEWVGRIRSKYNNYATYYADSVKDRFTISRDDSKSTLYLQMNSLKTEDTAVYYCARHGNFGQSYVSWFAYWGQGTTVTVSSGGGGSGGGGSGGGGSGGGGSQAVVTQEPSLTVSPGGTVTLTCRSSTGAVTTSNYANWVQQKPGQAPRGLIGGTNKRAPGVPARFSGSLLGDKAALTLLGAQPEDEAEYYCALWYSNLWVFGQGTKLTVL
B1: in assay [1], the Kd is 179 nM, the koff was determined as 0.0302 s⁻¹ and the on-rate (kon) was 169000 M⁻¹ s⁻¹. Also, in assay [2], the Kd turned out to be 110 nM, the koff came to 0.029 s⁻¹ and the kon is 265000 M⁻¹ s⁻¹.

B2: SGN70-sp34.97HL (bispecific antibody, part only; not given: anti-CD70 Fab arm and Fc, not shown: another chain or arm of the molecule; a dimerising Fc or GST)
scFv: B1 scFv with Y55A, N56G, N57G
Consider B2, for which, in assay [1], the equilibrium dissociation constant (Kd) came to 5500 nM, the koff was determined as 0.705 s⁻¹ and the kon stood at 128000 M⁻¹ s⁻¹. In addition, in assay [2], the Kd is 5200 nM, the koff stood at 0.416 s⁻¹ and the kon is 79900 M⁻¹ s⁻¹.

B3: SGN70-sp34.87HL (bispecific antibody, part only; not given: anti-CD70 Fab arm and Fc, not shown: another chain or arm of the molecule; a dimerising Fc or GST)
scFv: B1 scFv with G102Y
Turning to B3, in assay [1], the Kd amounted to 633 nM, the koff turned out to be 0.195 s⁻¹ and the on-rate constant (kon) is 308000 M⁻¹ s⁻¹. In assay [2], this molecule returned a Kd of 501 nM, a koff of 0.253 s⁻¹ and a kon of 504000 M⁻¹ s⁻¹.

B4: SGN70-sp34.101HL (bispecific antibody, part only; not given: anti-CD70 Fab arm and Fc, not shown: another chain or arm of the molecule; a dimerising Fc or GST; large carriers)
scFv: B1 scFv with Y108A, V109A
On to B4, for which, in assay [1], the Kd is 658 nM, the koff is 0.177 s⁻¹ and the kon was 269000 M⁻¹ s⁻¹. In assay [2], this molecule registered a Kd of 480 nM, a koff of 0.167 s⁻¹ and a kon of 347000 M⁻¹ s⁻¹.

B5: SGN70-sp34.24LH (bispecific antibody, part only; not given: anti-CD70 Fab arm and Fc, not shown: another chain or arm of the molecule; a dimerising Fc or GST; large carriers; small tags and cut ends)
scFv: QAVVTQEPSLTVSPGGTVTLTCRSSTGAVTTSNYANWVQQKPGQAPRGLIGGTNKRAPGVPARFSGSLLGDKAALTLLGAQPEDEAEYYCALWYSNLWVFGQGTKLTVLGGGGSGGGGSGGGGSGGGGSEVQLVESGGGLVQPGGSLKLSCAASGFTFNTYAMNWVRQASGKGLEWVGRIRSKYNNYATYYADSVKDRFTISRDDSKSTLYLQMNSLKTEDTAVYYCARHGNFGQSYVSWFAYWGQGTTVTVSS
With B5, in assay [1], the Kd turned out to be 141 nM, the koff turned out to be 0.0158 s⁻¹ and the kon came to 113000 M⁻¹ s⁻¹. In assay [2], this molecule returned a Kd of 98 nM, a koff of 0.0146 s⁻¹ and a kon of 150000 M⁻¹ s⁻¹.

B6: SGN70-sp34.101LH (bispecific antibody, part only; not given: anti-CD70 Fab arm and Fc, not shown: another chain or arm of the molecule; a dimerising Fc or GST; large carriers)
scFv: B5 scFv with Y237A, V238A
In assay [1], B6 displayed a Kd of 614 nM, a koff of 0.144 s⁻¹ and a kon of 235000 M⁻¹ s⁻¹. In assay [2], this molecule returned a Kd of 409 nM, a koff of 0.119 s⁻¹ and an association rate constant (kon) of 290000 M⁻¹ s⁻¹.

B7: SGN70-sp34.99LH (bispecific antibody, part only; not given: anti-CD70 Fab arm and Fc, not shown: another chain or arm of the molecule; a dimerising Fc or GST)
scFv: B5 scFv with F233A, G234Y
In assay [1], B7 had a Kd of 14600 nM, a koff of 0.217 s⁻¹ and a kon of 14900 M⁻¹ s⁻¹. For the same molecule, in assay [2], the Kd came to 8060 nM, the koff is 0.993 s⁻¹ and the kon was 123000 M⁻¹ s⁻¹.

B8: SGN70-sp34.87LH (bispecific antibody, part only; not given: anti-CD70 Fab arm and Fc, not shown: another chain or arm of the molecule; a dimerising Fc or GST)
scFv: B5 scFv with G231Y
Consider B8, for which, in assay [1], the Kd turned out to be 544 nM, the koff came to 0.0466 s⁻¹ and the kon came out at 85700 M⁻¹ s⁻¹. In assay [2], this molecule showed a Kd of 335 nM, a koff of 0.107 s⁻¹ and a kon of 321000 M⁻¹ s⁻¹.

B9: SGN70-sp34.80LH (bispecific antibody, part only; not given: anti-CD70 Fab arm and Fc, not shown: another chain or arm of the molecule; a dimerising Fc or GST)
scFv: B5 scFv with Y161A
In assay [1], B9 returned a Kd of 6490 nM, a koff of 0.749 s⁻¹ and an on-rate constant (kon) of 115000 M⁻¹ s⁻¹. In assay [2], this molecule returned a dissociation constant (Kd) of 4060 nM, a koff of 0.201 s⁻¹ and a kon of 49700 M⁻¹ s⁻¹.

B10: SGN70-sp34.97LH (bispecific antibody, part only; not given: anti-CD70 Fab arm and Fc, not shown: another chain or arm of the molecule; a dimerising Fc or GST)
scFv: B5 scFv with Y184A, N185G, N186G
In assay [1], B10 had a Kd of 5220 nM, a koff of 0.333 s⁻¹ and a kon of 63800 M⁻¹ s⁻¹. In assay [2], this molecule had a Kd of 3110 nM, a koff of 0.253 s⁻¹ and a kon of 81300 M⁻¹ s⁻¹.
